# Values quoted from earlier work as cited in patent US9307769B2, “Method for increasing plant yield, and yield improving compositions” (Plant Health Care, Inc., priority 2011, dated 2016).
# Conditions: HR-eliciting fragments, Table 1
row,Substance,pI
1,"HrpNEa-1: HR-eliciting fragment, E. amylovora, amino acid residues 43-70 (GLGGGNQNDTVNQLAGLLTGMMMMMSMM; UniProt Q01099 43-70, looked up, fragment)",3.09
2,"HrpNEa-2: HR-eliciting fragment, E. amylovora, amino acid residues 140-176 (QNDDSTSGTDSTSDSSDPMQQLLKMFSEIMQSLFGDG; UniProt Q01099 140-176, looked up, fragment)",3.17
3,"HrpNEch-1: HR-eliciting fragment, E. chrysanthemi, amino acid residues 78-118 (QLGQSFGNGAQGASNLLSVPKSGGDALSKMFDKALDDLLGH; UniProt Q47278 78-118, looked up, fragment)",5.25
4,"HrpNEch-2: HR-eliciting fragment, E. chrysanthemi, amino acid residues 256-295 (DGWSSPKTDDKSWAKALSKPDDDGMTGASMDKFRQAMGMI; UniProt Q47278 256-295, looked up, fragment)",4.62
5,"HrpWPss-1: HR-eliciting fragment, P. syringae, amino acid residues 52-96 (LAATMFVMAPVAHDIQQRVHEHPLELSNADKLQSSLKVVIEPLQR; UniProt Q60236 52-96, looked up, fragment)",4.32

# Same assay, conditions: building block domains for fusion proteins, Table 2
row,Substance,pI
1,"(NC): building block domain, source HrpNEa140-180 (QNDDSTSGTDSTSDSSDPMQQLLKMFSEIMQSLFGDGQDGT; UniProt Q01099 140-180, looked up, fragment)",5.01
2,"(NN): building block domain, source HrpNEa40-80 (SALGLGGGNQNDTVNQLAGLLTGMMMMMSMMGGGGLMGGGL; UniProt Q01099 40-80, looked up, fragment)",6.78
